Source: patent US20030108958A1

Molecular target: AK155 receptor complex (IL-20R1 and IL-10R2), endogenous on human cell lines (human) (UniProt Q9UHF4)
Assay: cell-based or functional assay

Chain of AK155 receptor complex (IL-20R1 and IL-10R2), endogenous on human cell lines (human) (Q9UHF4 30-553 V259I/L382F limits assumed, chain 1 of 2): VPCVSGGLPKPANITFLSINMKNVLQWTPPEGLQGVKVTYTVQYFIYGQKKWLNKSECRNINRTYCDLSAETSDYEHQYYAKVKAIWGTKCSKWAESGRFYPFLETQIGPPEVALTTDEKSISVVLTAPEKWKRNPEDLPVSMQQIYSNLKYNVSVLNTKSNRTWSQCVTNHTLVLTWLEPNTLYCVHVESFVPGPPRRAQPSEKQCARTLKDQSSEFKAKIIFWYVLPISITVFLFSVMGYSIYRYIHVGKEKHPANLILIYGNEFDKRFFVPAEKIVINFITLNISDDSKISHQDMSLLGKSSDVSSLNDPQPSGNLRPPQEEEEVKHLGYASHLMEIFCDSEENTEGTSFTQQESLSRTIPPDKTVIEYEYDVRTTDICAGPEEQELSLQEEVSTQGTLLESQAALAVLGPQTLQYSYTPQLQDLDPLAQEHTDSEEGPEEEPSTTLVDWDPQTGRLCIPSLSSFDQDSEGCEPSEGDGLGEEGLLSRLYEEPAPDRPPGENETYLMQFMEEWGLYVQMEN
Chain of AK155 receptor complex (IL-20R1 and IL-10R2), endogenous on human cell lines (human) (chain, as listed by the source limits assumed, chain 2 of 2): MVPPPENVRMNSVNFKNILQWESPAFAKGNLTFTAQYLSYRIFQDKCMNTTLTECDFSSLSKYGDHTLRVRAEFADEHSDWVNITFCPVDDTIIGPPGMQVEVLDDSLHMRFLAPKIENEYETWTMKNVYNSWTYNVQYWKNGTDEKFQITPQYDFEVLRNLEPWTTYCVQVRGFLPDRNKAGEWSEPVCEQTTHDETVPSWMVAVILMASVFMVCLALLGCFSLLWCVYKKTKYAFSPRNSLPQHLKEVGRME

AK155 (from UniProt Q9NPH9 22-171) (ligand)
IL-8 in supernatant of Colo-205 cells (ELISA), 24 h, with AK155 (without AK155: 552): 670 pg/mL
IL-8 in supernatant of Colo-205 cells (ELISA), 48 h, with AK155 (without AK155: 623): 989 pg/mL
IL-10 in supernatant of Colo-205 cells (ELISA), 24 h, with AK155 (without AK155: 61): 112 pg/mL
IL-10 in supernatant of Colo-205 cells (ELISA), 48 h, with AK155 (without AK155: 60): 94 pg/mL
